Experimental findings from IntAct's records for PubMed 34502139 are described below.

To fix the notation:
B1: Mitochondrial import receptor subunit TOM70 (Homo sapiens), O94826 (parent)
chain: MAASKPVEAAVVAAAVPSSGSGVGGGGTAGPGTGGLPRWQLALAVGAPLLLGAGAIYLWSRQQRRREARGRGDASGLKRNSERKTPEGRASPAPGSGHPEGPGAHLDMNSLDRAQAAKNKGNKYFKAGKYEQAIQCYTEAISLCPTEKNVDLSTFYQNRAAAFEQLQKWKEVAQDCTKAVELNPKYVKALFRRAKAHEKLDNKKECLEDVTAVCILEGFQNQQSMLLADKVLKLLGKEKAKEKYKNREPLMPSPQFIKSYFSSFTDDIISQPMLKGEKSDEDKDKEGEALEVKENSGYLKAKQYMEEENYDKIISECSKEIDAEGKYMAEALLLRATFYLLIGNANAAKPDLDKVISLKEANVKLRANALIKRGSMYMQQQQPLLSTQDFNMAADIDPQNADVYHHRGQLKILLDQVEEAVADFDECIRLRPESALAQAQKCFALYRQAYTGNNSSQIQAAMKGFEEVIKKFPRCAEGYALYAQALTDQQQFGKADEMYDKCIDLEPDNATTYVHKGLLQLQWKQDLDRGLELISKAIEIDNKCDFAYETMGTIEVQRGNMEKAIDMFNKAINLAKSEMEMAHLYSLCDAAHAQTEVAKKYGLKPPTL
B2: Mitochondrial import receptor subunit TOM70 (Homo sapiens), O94826 (parent)
chain: B1 chain
partner: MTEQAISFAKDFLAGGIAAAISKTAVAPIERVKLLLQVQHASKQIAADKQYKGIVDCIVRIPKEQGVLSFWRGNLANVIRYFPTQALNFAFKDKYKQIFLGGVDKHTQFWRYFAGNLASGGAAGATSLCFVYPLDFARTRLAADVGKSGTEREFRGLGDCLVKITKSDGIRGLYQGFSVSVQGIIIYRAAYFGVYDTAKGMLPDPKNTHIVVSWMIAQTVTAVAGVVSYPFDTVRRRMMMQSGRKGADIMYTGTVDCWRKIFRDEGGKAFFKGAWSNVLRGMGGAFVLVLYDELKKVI

One experiment covers variants of B1. The note with it: with hs90b_human HSP90AB1, P08238.
Sequence of hs90b_human HSP90AB1, P08238 (P08238 whole entry): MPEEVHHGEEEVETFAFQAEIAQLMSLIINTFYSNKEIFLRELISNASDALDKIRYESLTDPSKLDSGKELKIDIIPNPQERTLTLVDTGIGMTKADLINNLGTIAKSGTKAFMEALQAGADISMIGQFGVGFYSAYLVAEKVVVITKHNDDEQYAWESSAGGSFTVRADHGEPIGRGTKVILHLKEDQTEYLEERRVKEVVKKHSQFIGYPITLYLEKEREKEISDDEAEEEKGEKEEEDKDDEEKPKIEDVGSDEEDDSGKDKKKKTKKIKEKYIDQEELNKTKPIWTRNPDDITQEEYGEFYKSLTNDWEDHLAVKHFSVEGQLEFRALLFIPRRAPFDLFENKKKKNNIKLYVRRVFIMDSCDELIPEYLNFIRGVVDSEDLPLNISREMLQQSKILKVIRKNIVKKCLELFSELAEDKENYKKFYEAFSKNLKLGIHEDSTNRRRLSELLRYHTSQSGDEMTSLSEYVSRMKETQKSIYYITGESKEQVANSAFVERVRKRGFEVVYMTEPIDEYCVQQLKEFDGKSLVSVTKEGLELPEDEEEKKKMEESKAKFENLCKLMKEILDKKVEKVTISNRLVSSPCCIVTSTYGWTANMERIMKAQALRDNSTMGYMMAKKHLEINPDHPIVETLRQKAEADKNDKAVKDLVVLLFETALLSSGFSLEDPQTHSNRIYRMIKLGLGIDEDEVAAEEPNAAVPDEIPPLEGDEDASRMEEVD
Regarding E477A, the “effect of a mutation on the interaction” value is on record as “decreasing interaction strength”.

On to R192A, for which the “effect of a mutation on the interaction” value is “decreasing interaction strength”.

Variants of B2 are the subject of the next experiment. The conditions noted are these: with adt3_human SLC25A6, P12236.
For the variant E477A, the “effect of a mutation on the interaction” value is “decreasing interaction strength”.
